Among the data in PMC9813255 (2023) are Kd values, retold here.

The labels stand for the following.
T1: GST-Atxn1-86Q (UniProt P54253 1-815)
T1 chain: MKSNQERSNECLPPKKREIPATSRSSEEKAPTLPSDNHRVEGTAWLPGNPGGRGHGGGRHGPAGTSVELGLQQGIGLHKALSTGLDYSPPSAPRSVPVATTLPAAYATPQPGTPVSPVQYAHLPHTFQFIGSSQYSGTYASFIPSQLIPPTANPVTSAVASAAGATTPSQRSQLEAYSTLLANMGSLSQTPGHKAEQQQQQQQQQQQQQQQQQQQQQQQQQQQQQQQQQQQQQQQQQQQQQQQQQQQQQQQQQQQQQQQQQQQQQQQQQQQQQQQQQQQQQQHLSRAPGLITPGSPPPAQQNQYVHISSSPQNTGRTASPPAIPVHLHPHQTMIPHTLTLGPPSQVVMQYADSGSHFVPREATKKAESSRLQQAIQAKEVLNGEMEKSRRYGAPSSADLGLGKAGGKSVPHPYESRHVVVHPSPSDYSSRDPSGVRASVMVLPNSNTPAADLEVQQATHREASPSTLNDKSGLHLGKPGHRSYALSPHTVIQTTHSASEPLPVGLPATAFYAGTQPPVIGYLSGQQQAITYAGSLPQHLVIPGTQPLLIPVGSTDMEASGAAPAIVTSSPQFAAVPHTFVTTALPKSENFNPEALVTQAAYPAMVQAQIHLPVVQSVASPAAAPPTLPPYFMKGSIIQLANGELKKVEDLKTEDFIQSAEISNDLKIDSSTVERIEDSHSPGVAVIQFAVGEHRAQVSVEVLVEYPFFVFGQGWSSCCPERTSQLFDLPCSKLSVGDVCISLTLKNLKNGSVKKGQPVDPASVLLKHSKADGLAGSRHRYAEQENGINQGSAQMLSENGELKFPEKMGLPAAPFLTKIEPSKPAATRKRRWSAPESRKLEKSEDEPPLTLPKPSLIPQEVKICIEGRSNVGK

T2: GST-Atxn1-33Q (UniProt P54253 1-815)
T2 chain: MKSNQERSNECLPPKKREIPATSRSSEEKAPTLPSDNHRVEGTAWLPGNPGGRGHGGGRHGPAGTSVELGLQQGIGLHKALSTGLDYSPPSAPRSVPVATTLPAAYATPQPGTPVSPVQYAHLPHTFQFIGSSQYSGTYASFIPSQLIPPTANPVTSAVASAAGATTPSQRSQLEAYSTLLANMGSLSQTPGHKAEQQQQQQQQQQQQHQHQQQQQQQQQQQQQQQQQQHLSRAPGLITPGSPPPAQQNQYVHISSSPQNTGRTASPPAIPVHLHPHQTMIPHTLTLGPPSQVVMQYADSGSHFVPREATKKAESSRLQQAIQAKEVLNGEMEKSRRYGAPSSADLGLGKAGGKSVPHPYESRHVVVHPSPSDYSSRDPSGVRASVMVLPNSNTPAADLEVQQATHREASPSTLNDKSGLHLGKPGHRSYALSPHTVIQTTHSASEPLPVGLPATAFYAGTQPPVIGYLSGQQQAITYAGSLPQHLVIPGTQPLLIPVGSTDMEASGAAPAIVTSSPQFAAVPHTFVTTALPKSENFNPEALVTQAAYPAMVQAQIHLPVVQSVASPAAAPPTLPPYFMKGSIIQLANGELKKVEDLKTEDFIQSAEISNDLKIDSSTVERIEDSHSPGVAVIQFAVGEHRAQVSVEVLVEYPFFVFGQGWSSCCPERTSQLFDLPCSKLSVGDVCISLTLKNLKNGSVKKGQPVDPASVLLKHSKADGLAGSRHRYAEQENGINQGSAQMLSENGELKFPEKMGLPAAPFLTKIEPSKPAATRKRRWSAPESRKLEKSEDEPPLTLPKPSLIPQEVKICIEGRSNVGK

T3: GST-Htt-20Q
T3 chain: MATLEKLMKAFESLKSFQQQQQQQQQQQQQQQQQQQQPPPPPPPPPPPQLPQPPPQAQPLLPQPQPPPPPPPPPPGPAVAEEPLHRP

B1: PQBP5-Δ2 (protein)
chain: PRTRNRVGLLDCALNSVTADSEINSLPTISALKFNGALTMAVGTTTGQVLLYDLRSDKPLLVKDHQYGLPIKSVHFQDSLDLILSADSRIVKMWNKNSGKIFTSLEPEHDLNDVCLYPNSGMLLTANETPKMGIYYIPVLGPAPRWCSFLDNLTEELEENPESTVYDDYKFVTKKDLENLGLTHLIGSPFLRAYMHGFFMDIRLYHKVKLMVNPFAYEEYRKDKIRQKIEETRAQRVQLKKLPKVNKELALKLIEEEEEKQKSTWKKKVKSLPNILTDDRFKVMFENPDFQVDEESEEFRLLNPLVSKISEKRKKKLRLLEQQELREKEEEEEPEGKPSDAESSESSDDEKAWVEEVRKQRRLLQQEEKVKRQERLKEDQQTVLKPQFYEIKAGEEFRSFKDSATKQKLMNKTLEDRLKIEAKNGTLSVSDTTVGSKQLTFTLKRSEQQKKQQEAEKLHRQERKRLRRSAGHLKSRHKRGRSFH
modifications: Delta number assigned from the order of the constructs in the methods; initiator Met from the primer and tag omitted.
B2: PQBP5-Δ5 (protein)
chain: MQVSSLNEVKIYSLSCGKSLPEWLSDRKKRALQKKDVDVRRRIELIQDFEMPTVCTTIKVSKDGQYILATGTYKPRVRCYDTYQLSLKFERCLDSEVVTFEILSDDYSKIVFLHNDRYIEFHSQSGFYYKTRIPKFGRDFSYHYPSCDLYFVGASSEVYRLNLEQGRYLNPLQTDAAENNVCDINSVHGLFATGTIEGRVECWDPRTRNRVGLLDCALNSVTADSEINSLPTISALKFNGALTMAVGTTTGQVLLYDLRSDKPLLVKDHQYGLPIKSVHFQDSLDLILSADSRIVKMWNKNSGKIFTSLEPEHDLNDVCLYPNSGMLLTANETPKMGIYYIPVLGPAPRWCSFLDNLTEELEENPESTVYDDYKFVTKKDLENLGLTHLIGSPFLRAYMHGFFMDIRLYHKVKLMVNPFAYEEYRKDKIRQKIEETRAQRVQLKKLPKVNKELALKLIEEEEEKQKSTWKKKVKSLPNILT
modifications: Delta number assigned from the order of the constructs in the methods (fifth: 1-481, lacking NUC153); tag omitted.
B3: PQBP5-Δ3 (protein)
chain: IPVLGPAPRWCSFLDNLTEELEENPESTVYDDYKFVTKKDLENLGLTHLIGSPFLRAYMHGFFMDIRLYHKVKLMVNPFAYEEYRKDKIRQKIEETRAQRVQLKKLPKVNKELALKLIEEEEEKQKSTWKKKVKSLPNILTDDRFKVMFENPDFQVDEESEEFRLLNPLVSKISEKRKKKLRLLEQQELREKEEEEEPEGKPSDAESSESSDDEKAWVEEVRKQRRLLQQEEKVKRQERLKEDQQTVLKPQFYEIKAGEEFRSFKDSATKQKLMNKTLEDRLKIEAKNGTLSVSDTTVGSKQLTFTLKRSEQQKKQQEAEKLHRQERKRLRRSAGHLKSRHKRGRSFH
modifications: Delta number assigned from the order of the constructs in the methods; initiator Met from the primer and tag omitted.
B4: PQBP5-Δ2 (protein)
chain: B1 chain
modifications: Delta number assigned from the order of the constructs in the methods; initiator Met from the primer and tag omitted. Exon 1 ends at ...LHRP, which agrees with the printed Htt reverse primer. The entry carries 21Q (18-38); one Q is removed to give the 20Q of the assayed protein name. The plasmid is called 17Q, so the repeat count is ambiguous. GST omitted.
B5: full-length human PQBP5 (His-tag fusion protein) (natural protein)
chain: MQVSSLNEVKIYSLSCGKSLPEWLSDRKKRALQKKDVDVRRRIELIQDFEMPTVCTTIKVSKDGQYILATGTYKPRVRCYDTYQLSLKFERCLDSEVVTFEILSDDYSKIVFLHNDRYIEFHSQSGFYYKTRIPKFGRDFSYHYPSCDLYFVGASSEVYRLNLEQGRYLNPLQTDAAENNVCDINSVHGLFATGTIEGRVECWDPRTRNRVGLLDCALNSVTADSEINSLPTISALKFNGALTMAVGTTTGQVLLYDLRSDKPLLVKDHQYGLPIKSVHFQDSLDLILSADSRIVKMWNKNSGKIFTSLEPEHDLNDVCLYPNSGMLLTANETPKMGIYYIPVLGPAPRWCSFLDNLTEELEENPESTVYDDYKFVTKKDLENLGLTHLIGSPFLRAYMHGFFMDIRLYHKVKLMVNPFAYEEYRKDKIRQKIEETRAQRVQLKKLPKVNKELALKLIEEEEEKQKSTWKKKVKSLPNILTDDRFKVMFENPDFQVDEESEEFRLLNPLVSKISEKRKKKLRLLEQQELREKEEEEEPEGKPSDAESSESSDDEKAWVEEVRKQRRLLQQEEKVKRQERLKEDQQTVLKPQFYEIKAGEEFRSFKDSATKQKLMNKTLEDRLKIEAKNGTLSVSDTTVGSKQLTFTLKRSEQQKKQQEAEKLHRQERKRLRRSAGHLKSRHKRGRSFH
modifications: Exon 1 ends at ...LHRP, which agrees with the printed Htt reverse primer. The entry carries 21Q (18-38); one Q is removed to give the 20Q of the assayed protein name. The plasmid is called 17Q, so the repeat count is ambiguous. GST omitted.
B6: PQBP5-Δ3 (protein)
chain: B3 chain
modifications: Delta number assigned from the order of the constructs in the methods; initiator Met from the primer and tag omitted. Exon 1 ends at ...LHRP, which agrees with the printed Htt reverse primer. The entry carries 21Q (18-38); one Q is removed to give the 20Q of the assayed protein name. The plasmid is called 17Q, so the repeat count is ambiguous. GST omitted.
B7: PQBP5-Δ1 (protein)
chain: TYQLSLKFERCLDSEVVTFEILSDDYSKIVFLHNDRYIEFHSQSGFYYKTRIPKFGRDFSYHYPSCDLYFVGASSEVYRLNLEQGRYLNPLQTDAAENNVCDINSVHGLFATGTIEGRVECWDPRTRNRVGLLDCALNSVTADSEINSLPTISALKFNGALTMAVGTTTGQVLLYDLRSDKPLLVKDHQYGLPIKSVHFQDSLDLILSADSRIVKMWNKNSGKIFTSLEPEHDLNDVCLYPNSGMLLTANETPKMGIYYIPVLGPAPRWCSFLDNLTEELEENPESTVYDDYKFVTKKDLENLGLTHLIGSPFLRAYMHGFFMDIRLYHKVKLMVNPFAYEEYRKDKIRQKIEETRAQRVQLKKLPKVNKELALKLIEEEEEKQKSTWKKKVKSLPNILTDDRFKVMFENPDFQVDEESEEFRLLNPLVSKISEKRKKKLRLLEQQELREKEEEEEPEGKPSDAESSESSDDEKAWVEEVRKQRRLLQQEEKVKRQERLKEDQQTVLKPQFYEIKAGEEFRSFKDSATKQKLMNKTLEDRLKIEAKNGTLSVSDTTVGSKQLTFTLKRSEQQKKQQEAEKLHRQERKRLRRSAGHLKSRHKRGRSFH
modifications: Delta number assigned from the order of the constructs in the methods; initiator Met from the primer and tag omitted. Exon 1 ends at ...LHRP, which agrees with the printed Htt reverse primer. The entry carries 21Q (18-38); one Q is removed to give the 20Q of the assayed protein name. The plasmid is called 17Q, so the repeat count is ambiguous. GST omitted.
B8: PQBP5-Δ5 (protein)
chain: B2 chain
modifications: Delta number assigned from the order of the constructs in the methods (fifth: 1-481, lacking NUC153); tag omitted. Exon 1 ends at ...LHRP, which agrees with the printed Htt reverse primer. The entry carries 21Q (18-38); one Q is removed to give the 20Q of the assayed protein name. The plasmid is called 17Q, so the repeat count is ambiguous. GST omitted.

One assay concerns the target T1, GST-Atxn1-86Q. The experiment in a line: SPR.
Consider B1, for which the Kd was determined as 183 nM.

Molecule B2 displayed a Kd of 0.128 nM.

The next assay has as its target T2, GST-Atxn1-33Q. The experiment in a line: SPR.
Molecule B1 returned a Kd of 830 nM.

Take B3: the affinity, expressed as Kd, was 255 nM.

In turn, B2 registered a dissociation constant (Kd) of 0.194 nM.

The next assay has as its target T3, GST-Htt-20Q. Nature of the assay: SPR.
Take B4: the Kd was found to be 463 nM. This counts as sub-micromolar.

B5 registered a Kd of 0.0308 nM.

B6 yielded a Kd of 402 nM.

In turn, B7 came in with a Kd of 2.67 nM. Against the preceding molecule, the Kd is about 150-fold lower.

The molecule B8 displayed a Kd of 0.354 nM.
